# From the supplement of paper PMC12667976
# ± gives the standard error.
# B1: library; numbered along this chain (parent)
# chain: MATDAALRRLLRLHRTEIAVAVDSAFPLLHALADHDVVPEDKFQETLHLKEKEGCPQAFHALLSWLLTQDSTAILDFWRVLFKDYNLERYGRLQPILDSFPKDVDLSQPRKGRKPPAVPKALVPPPRLPTKRKASEEARAAAPAALTPRGTASPGSQLKAKPPKKPESSAEQQRLPLGNGIQTMSASVQRAVAMSSGDVPGARGAVEGILIQQVFESGGSKKCIQVGGEFYTPSKFEDSGSGKNKARSSSGPKPLVRAKGAQGAAPGGGEARLGQQGSVPAPLALPSDPQLHQKNEDECAVCRDGGELICCDGCPRAFHLACLSPPLREIPSGTWRCSSCLQATVQEVQPRAEEPRPQEPPVETPLPPGLRSAGEEVRGPPGEPLAGMDTTLVYKHLPAPPSAAPLPGLDSSALHPLLCVGPEGQQNLAPGARCGVCGDGTDVLRCTHCAAAFHWRCHFPAGTSRPGTGLRCRSCSGDVTPAPVEGVLAPSPARLAPGPAKDDTASHEPALHRDDLESLLSEHTFDGILQWAIQSMARPAAPFPS
# Variants of: B1
# Experiment: AIRE transcriptional activation functional score (insulin promoter-GFP; nonsense median 0, synonymous median 1) (normalised score); higher = higher AIRE activity (more reporter activation)
# Details: with insulin promoter-GFP reporter in HEK293
# Description: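 Deep mutational scan of full-length human AIRE (codon-optimized cDNA, DT-POPCode NNN libraries over three regions) integrated at a Bxb1 landing pad in HEK293 cells carrying an insulin core promoter-GFP reporter at a Flp-In site. Cells were sorted for the top 10% GFP about 14 days after transfection. Variant frequency log-ratios (select vs non-select, TileSeq) were rescaled so that the nonsense median is 0 and the synonymous median is 1, then averaged over biological replicates.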
row,Variant,AIRE transcriptional activation functional score
1,L516N,0.207 ± 0.055
2,P280T,1.04 ± 0.29
3,D514T,0.26 ± 0.081
4,Q534N,1.8 ± 0.093
5,L291E,0.759 ± 0.11
6,Q426W,1.64 ± 0.042
7,E363S,1.04 ± 0.22
8,A496K,0.412 ± 0.094
9,P143K,0.307 ± 0.16
10,P143N,1.32 ± 0.13
11,K245I,0.196 ± 0.051
12,K131Y,0.0539 ± 0.21
13,V377A,0.734 ± 0.31
14,E137G,0.593 ± 0.29
15,E137Y,1.71 ± 0.65
16,A386V,0.968 ± 0.33
17,L366R,1.1 ± 0.16
18,A170Q,0.496 ± 1.3
19,A170S,0.78 ± 0.85
20,R139I,1 ± 0.39
21,V348W,1.37 ± 0.074
22,R433G,0.748 ± 0.22
23,S474L,0.185 ± 0.081
24,S474Q,1.02 ± 0.055

row,Variant,AIRE transcriptional activation functional score
1,S518A,0.775 ± 0.32
2,A19M,1.9 ± 0.1
3,F77L,-0.0762 ± 0.36
4,F26W,1.21 ± 0.12
5,P233V,0.512 ± 0.2
6,F43D,-0.408 ± 0.097
7,G305E,0.782 ± 0.13
8,G382D,0.898 ± 0.093
9,H35G,0.0779 ± 0.72
10,A403C,0.942 ± 0.27
11,A61Y,-0.0286 ± 0.38
12,L66R,-0.171 ± 0.6
13,C446Y,-0.213 ± 0.15
14,C446S,-0.132 ± 0.15
15,V206T,0.68 ± 0.2
16,K114Y,1.51 ± 0.4
17,S402M,0.776 ± 0.079
18,S402H,1.48 ± 0.23
19,P101D,0.335 ± 0.054
20,F525C,0.0978 ± 0.11
21,F525H,-0.0452 ± 0.08
22,V345M,1.28 ± 0.08
23,T151Y,1.44 ± 0.23
24,T151K,0.845 ± 0.2

row,Variant,AIRE transcriptional activation functional score
1,T151E,1.13 ± 0.21
2,S241F,1.2 ± 0.074
3,S241D,1.13 ± 0.051
4,S241A,0.598 ± 0.15
5,R12I,-0.464 ± 0.25
6,M388F,1.15 ± 0.099
7,K235A,0.515 ± 0.17
8,A152V,1.17 ± 0.27
9,A152I,0.777 ± 0.33
10,G379T,0.911 ± 0.059
11,G178W,0.64 ± 0.071
12,L488T,1.18 ± 0.22
13,R92I,-0.385 ± 0.42
14,K395S,0.558 ± 0.28
15,K395R,-0.166 ± 0.49
16,P499G,1.31 ± 0.46
17,P499V,1.21 ± 0.17
18,P126R,-0.0135 ± 0.24
19,A191H,1.25 ± 0.3
20,A413T,1.17 ± 0.17
21,E17T,0.383 ± 0.71
22,G431V,1.13 ± 0.14
23,S339A,1.13 ± 0.22
24,A5Q,0.782 ± 0.05

row,Variant,AIRE transcriptional activation functional score
1,H48R,1.64 ± 0.88
2,F543L,0.729 ± 0.15
3,P509M,1.65 ± 0.075
4,R471C,0.215 ± 0.1
5,R9K,-2.37 ± 0.13
6,R9A,1.09 ± 0.34
7,R9Q,1.13 ± 0.62
8,G227F,-0.195 ± 0.43
9,L87F,-0.159 ± 0.11
10,E329R,0.935 ± 0.41
11,R110E,1.09 ± 0.46
12,L385Q,1.24 ± 0.032
13,L385P,0.451 ± 0.065
14,V192T,0.917 ± 0.3
15,F236C,0.925 ± 0.18
16,G313H,1.5 ± 0.058
17,I309R,0.877 ± 0.22
18,P360Y,1.2 ± 0.31
19,P422F,0.774 ± 0.39
20,S185Y,0.264 ± 0.11
21,Q212I,-0.568 ± 0.044
22,G374L,1.29 ± 0.14
23,H60K,-0.424 ± 0.78
24,K111G,0.901 ± 0.57

row,Variant,AIRE transcriptional activation functional score
1,K111W,0.591 ± 0.065
2,A145P,0.887 ± 0.31
3,F453E,-0.452 ± 0.21
4,D304H,1.13 ± 0.042
5,D478F,0.799 ± 0.11
6,A142D,1.05 ± 0.44
7,L283W,1.14 ± 0.032
8,L283R,1 ± 0.23
9,P357Y,1.34 ± 0.16
10,G150I,1.08 ± 0.33
11,E237H,0.943 ± 0.14
12,E237Y,0.617 ± 0.2
13,V20M,0.622 ± 0.34
14,I209A,0.165 ± 0.097
15,V199S,0.671 ± 0.35
16,P400E,0.545 ± 0.17
17,V226E,0.0129 ± 0.17
18,G274V,1.05 ± 0.16
19,G274D,1.14 ± 0.15
20,G486N,0.995 ± 0.084
21,K501F,1.17 ± 0.085
22,D288Q,0.949 ± 0.084
23,R190T,0.755 ± 0.15
24,R190L,0.356 ± 0.36

row,Variant,AIRE transcriptional activation functional score
1,D103T,0.146 ± 0.44
2,S338W,0.904 ± 0.038
3,L63A,0.181 ± 0.47
4,R465C,0.66 ± 0.18
5,S278Y,1.29 ± 0.17
6,S545A,-0.21 ± 0.1
7,S545F,1.04 ± 0.1
8,V420W,1.35 ± 0.026
9,V104S,-0.0986 ± 0.53
10,H523D,0.678 ± 0.41
11,K133G,0.153 ± 0.19
12,K133V,-0.175 ± 0.33
13,K83A,0.537 ± 0.43
14,K159G,0.883 ± 0.64
15,S491E,1.06 ± 0.16
16,D515Q,0.723 ± 0.15
17,P368A,1.2 ± 0.26
18,Q346S,1.06 ± 0.16
19,Q346H,1.3 ± 0.042
20,K243Y,-0.257 ± 0.13
21,K243D,0.0348 ± 0.23
22,H512A,0.977 ± 0.23
23,H512P,1.09 ± 0.24
24,C449Q,0.388 ± 0.15

row,Variant,AIRE transcriptional activation functional score
1,D4S,0.199 ± 0.46
2,D4R,-0.235 ± 0.59
3,W335V,1.24 ± 0.14
4,P365M,1.49 ± 0.068
5,P384H,1.05 ± 0.42
6,P384A,0.99 ± 0.33
7,A493H,1.46 ± 0.11
8,E298R,0.634 ± 0.13
9,E298Y,0.785 ± 0.38
10,E298Q,1.15 ± 0.088
11,D410T,1.41 ± 0.086
12,D410F,1.06 ± 0.17
13,D410H,1.17 ± 0.092
14,P407W,1.13 ± 0.046
15,P109V,0.635 ± 0.4
16,W78F,0.409 ± 0.39
17,P492D,-0.0101 ± 0.24
18,T504D,1.79 ± 0.077
19,T504I,1.6 ± 0.11
20,Q69I,-0.279 ± 0.22
21,P254T,0.737 ± 0.27
22,K253A,1.28 ± 0.23
23,G242Y,1.6 ± 0.054
